Non-standard residues stand in square brackets, D forms with d. 1Nal = N[C@@H](Cc1cccc2ccccc12)C(=O)O; Nle = CCCC[C@H](N)C(=O)O; Aib = CC(C)(N)C(=O)O
molecular target: T1, RXFP1 receptor (UniProt Q9HBX9 1-757, limits assumed); assay: cell-based or functional assay
T1 sequence (looked up): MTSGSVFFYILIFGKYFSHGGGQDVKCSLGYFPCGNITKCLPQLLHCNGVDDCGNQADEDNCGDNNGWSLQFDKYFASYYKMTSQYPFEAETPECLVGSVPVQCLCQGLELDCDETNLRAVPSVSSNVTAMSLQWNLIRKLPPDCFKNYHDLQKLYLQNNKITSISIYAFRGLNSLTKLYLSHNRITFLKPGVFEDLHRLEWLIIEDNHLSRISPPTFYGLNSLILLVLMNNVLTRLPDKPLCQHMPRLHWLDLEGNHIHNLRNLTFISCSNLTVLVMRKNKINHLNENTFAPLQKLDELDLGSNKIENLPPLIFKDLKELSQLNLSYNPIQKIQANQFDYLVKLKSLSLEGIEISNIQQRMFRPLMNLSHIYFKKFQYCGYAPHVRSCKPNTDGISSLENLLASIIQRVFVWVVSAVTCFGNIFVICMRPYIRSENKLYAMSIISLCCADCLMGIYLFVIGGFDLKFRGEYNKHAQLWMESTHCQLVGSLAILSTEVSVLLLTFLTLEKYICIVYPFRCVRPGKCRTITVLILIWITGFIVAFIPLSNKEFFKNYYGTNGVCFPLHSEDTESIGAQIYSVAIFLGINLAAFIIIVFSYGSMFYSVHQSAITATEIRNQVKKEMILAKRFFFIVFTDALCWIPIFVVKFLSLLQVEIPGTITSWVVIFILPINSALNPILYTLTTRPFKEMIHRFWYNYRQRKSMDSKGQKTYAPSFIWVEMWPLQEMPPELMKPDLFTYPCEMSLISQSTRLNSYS

Row | cAMP assay in OVCAR 5 cells EC50 [nM] | cAMP assay in OVCAR 5 cells Emax [%] | Binder
1 | 4.6 | 101 | Ac-LEGREKVRAAI[Aib][Aib]EGMSTWSKRKK-NH2 (SMILES CC[C@H](C)[C@H](NC(=O)[C@H](C)NC(=O)[C@H](C)NC(=O)[C@H](CCCNC(=N)N)NC(=O)[C@@H](NC(=O)[C@H](CCCCN)NC(=O)[C@H](CCC(=O)O)NC(=O)[C@H](CCCNC(=N)N)NC(=O)CNC(=O)[C@H](CCC(=O)O)NC(=O)[C@H](CC(C)C)NC(C)=O)C(C)C)C(=O)NC(C)(C)C(=O)NC(C)(C)C(=O)N[C@@H](CCC(=O)O)C(=O)NCC(=O)N[C@@H](CCSC)C(=O)N[C@@H](CO)C(=O)N[C@H](C(=O)N[C@@H](Cc1c[nH]c2ccccc12)C(=O)N[C@@H](CO)C(=O)N[C@@H](CCCCN)C(=O)N[C@@H](CCCNC(=N)N)C(=O)N[C@@H](CCCCN)C(=O)N[C@@H](CCCCN)C(N)=O)[C@@H](C)O) [SEQ ID NO: 16]
2 | 18.2 | 97 | Ac-LEGREKVRA[Aib]I[Aib][Aib]EG[Nle]STWSKRKK-NH2 (SMILES CCCC[C@H](NC(=O)CNC(=O)[C@H](CCC(=O)O)NC(=O)C(C)(C)NC(=O)C(C)(C)NC(=O)[C@@H](NC(=O)C(C)(C)NC(=O)[C@H](C)NC(=O)[C@H](CCCNC(=N)N)NC(=O)[C@@H](NC(=O)[C@H](CCCCN)NC(=O)[C@H](CCC(=O)O)NC(=O)[C@H](CCCNC(=N)N)NC(=O)CNC(=O)[C@H](CCC(=O)O)NC(=O)[C@H](CC(C)C)NC(C)=O)C(C)C)[C@@H](C)CC)C(=O)N[C@@H](CO)C(=O)N[C@H](C(=O)N[C@@H](Cc1c[nH]c2ccccc12)C(=O)N[C@@H](CO)C(=O)N[C@@H](CCCCN)C(=O)N[C@@H](CCCNC(=N)N)C(=O)N[C@@H](CCCCN)C(=O)N[C@@H](CCCCN)C(N)=O)[C@@H](C)O) [SEQ ID NO: 19]
3 | 24.4 | 104 | Ac-LEGREKVRAQI[Aib][Aib]EG[Nle]ST[1Nal]SKRKK-NH2 (SMILES CCCC[C@H](NC(=O)CNC(=O)[C@H](CCC(=O)O)NC(=O)C(C)(C)NC(=O)C(C)(C)NC(=O)[C@@H](NC(=O)[C@H](CCC(N)=O)NC(=O)[C@H](C)NC(=O)[C@H](CCCNC(=N)N)NC(=O)[C@@H](NC(=O)[C@H](CCCCN)NC(=O)[C@H](CCC(=O)O)NC(=O)[C@H](CCCNC(=N)N)NC(=O)CNC(=O)[C@H](CCC(=O)O)NC(=O)[C@H](CC(C)C)NC(C)=O)C(C)C)[C@@H](C)CC)C(=O)N[C@@H](CO)C(=O)N[C@H](C(=O)N[C@@H](Cc1cccc2ccccc12)C(=O)N[C@@H](CO)C(=O)N[C@@H](CCCCN)C(=O)N[C@@H](CCCNC(=N)N)C(=O)N[C@@H](CCCCN)C(=O)N[C@@H](CCCCN)C(N)=O)[C@@H](C)O) [SEQ ID NO: 15]
4 | 14.4 | 99 | Ac-LEGREKVRAQI[Aib][Aib]EGMSKWSKRKK-NH2 (SMILES CC[C@H](C)[C@H](NC(=O)[C@H](CCC(N)=O)NC(=O)[C@H](C)NC(=O)[C@H](CCCNC(=N)N)NC(=O)[C@@H](NC(=O)[C@H](CCCCN)NC(=O)[C@H](CCC(=O)O)NC(=O)[C@H](CCCNC(=N)N)NC(=O)CNC(=O)[C@H](CCC(=O)O)NC(=O)[C@H](CC(C)C)NC(C)=O)C(C)C)C(=O)NC(C)(C)C(=O)NC(C)(C)C(=O)N[C@@H](CCC(=O)O)C(=O)NCC(=O)N[C@@H](CCSC)C(=O)N[C@@H](CO)C(=O)N[C@@H](CCCCN)C(=O)N[C@@H](Cc1c[nH]c2ccccc12)C(=O)N[C@@H](CO)C(=O)N[C@@H](CCCCN)C(=O)N[C@@H](CCCNC(=N)N)C(=O)N[C@@H](CCCCN)C(=O)N[C@@H](CCCCN)C(N)=O) [SEQ ID NO: 2]
5 | 19.2 | 97 | Ac-LEGREKVRAQI[Aib][Aib]EG[Nle]STWSKRKK-NH2 (SMILES CCCC[C@H](NC(=O)CNC(=O)[C@H](CCC(=O)O)NC(=O)C(C)(C)NC(=O)C(C)(C)NC(=O)[C@@H](NC(=O)[C@H](CCC(N)=O)NC(=O)[C@H](C)NC(=O)[C@H](CCCNC(=N)N)NC(=O)[C@@H](NC(=O)[C@H](CCCCN)NC(=O)[C@H](CCC(=O)O)NC(=O)[C@H](CCCNC(=N)N)NC(=O)CNC(=O)[C@H](CCC(=O)O)NC(=O)[C@H](CC(C)C)NC(C)=O)C(C)C)[C@@H](C)CC)C(=O)N[C@@H](CO)C(=O)N[C@H](C(=O)N[C@@H](Cc1c[nH]c2ccccc12)C(=O)N[C@@H](CO)C(=O)N[C@@H](CCCCN)C(=O)N[C@@H](CCCNC(=N)N)C(=O)N[C@@H](CCCCN)C(=O)N[C@@H](CCCCN)C(N)=O)[C@@H](C)O) [SEQ ID NO: 13]
6 | 52.1 | 104 | Ac-LEGREKVRAAI[Aib][Aib]EGMSKWS[Aib]RK-NH2 (SMILES CC[C@H](C)[C@H](NC(=O)[C@H](C)NC(=O)[C@H](C)NC(=O)[C@H](CCCNC(=N)N)NC(=O)[C@@H](NC(=O)[C@H](CCCCN)NC(=O)[C@H](CCC(=O)O)NC(=O)[C@H](CCCNC(=N)N)NC(=O)CNC(=O)[C@H](CCC(=O)O)NC(=O)[C@H](CC(C)C)NC(C)=O)C(C)C)C(=O)NC(C)(C)C(=O)NC(C)(C)C(=O)N[C@@H](CCC(=O)O)C(=O)NCC(=O)N[C@@H](CCSC)C(=O)N[C@@H](CO)C(=O)N[C@@H](CCCCN)C(=O)N[C@@H](Cc1c[nH]c2ccccc12)C(=O)N[C@@H](CO)C(=O)NC(C)(C)C(=O)N[C@@H](CCCNC(=N)N)C(=O)N[C@@H](CCCCN)C(N)=O) [SEQ ID NO: 18]
7 | 11.6 | 90 | Ac-LEGREKVRAAI[Aib][Aib]EG[Nle]STWS[Aib]RKK-NH2 (SMILES CCCC[C@H](NC(=O)CNC(=O)[C@H](CCC(=O)O)NC(=O)C(C)(C)NC(=O)C(C)(C)NC(=O)[C@@H](NC(=O)[C@H](C)NC(=O)[C@H](C)NC(=O)[C@H](CCCNC(=N)N)NC(=O)[C@@H](NC(=O)[C@H](CCCCN)NC(=O)[C@H](CCC(=O)O)NC(=O)[C@H](CCCNC(=N)N)NC(=O)CNC(=O)[C@H](CCC(=O)O)NC(=O)[C@H](CC(C)C)NC(C)=O)C(C)C)[C@@H](C)CC)C(=O)N[C@@H](CO)C(=O)N[C@H](C(=O)N[C@@H](Cc1c[nH]c2ccccc12)C(=O)N[C@@H](CO)C(=O)NC(C)(C)C(=O)N[C@@H](CCCNC(=N)N)C(=O)N[C@@H](CCCCN)C(=O)N[C@@H](CCCCN)C(N)=O)[C@@H](C)O) [SEQ ID NO: 17]
8 | 44.8 | 102 | Ac-[Aib]EGREKVRAQI[Aib][Aib]EGMSKWSKRKK-NH2 (SMILES CC[C@H](C)[C@H](NC(=O)[C@H](CCC(N)=O)NC(=O)[C@H](C)NC(=O)[C@H](CCCNC(=N)N)NC(=O)[C@@H](NC(=O)[C@H](CCCCN)NC(=O)[C@H](CCC(=O)O)NC(=O)[C@H](CCCNC(=N)N)NC(=O)CNC(=O)[C@H](CCC(=O)O)NC(=O)C(C)(C)NC(C)=O)C(C)C)C(=O)NC(C)(C)C(=O)NC(C)(C)C(=O)N[C@@H](CCC(=O)O)C(=O)NCC(=O)N[C@@H](CCSC)C(=O)N[C@@H](CO)C(=O)N[C@@H](CCCCN)C(=O)N[C@@H](Cc1c[nH]c2ccccc12)C(=O)N[C@@H](CO)C(=O)N[C@@H](CCCCN)C(=O)N[C@@H](CCCNC(=N)N)C(=O)N[C@@H](CCCCN)C(=O)N[C@@H](CCCCN)C(N)=O) [SEQ ID NO: 11]
9 | 28.2 | 99 | H-[Aib]EGREKVRAQI[Aib][Aib]EGMSKWSKRKK-NH2 (SMILES CC[C@H](C)[C@H](NC(=O)[C@H](CCC(N)=O)NC(=O)[C@H](C)NC(=O)[C@H](CCCNC(=N)N)NC(=O)[C@@H](NC(=O)[C@H](CCCCN)NC(=O)[C@H](CCC(=O)O)NC(=O)[C@H](CCCNC(=N)N)NC(=O)CNC(=O)[C@H](CCC(=O)O)NC(=O)C(C)(C)N)C(C)C)C(=O)NC(C)(C)C(=O)NC(C)(C)C(=O)N[C@@H](CCC(=O)O)C(=O)NCC(=O)N[C@@H](CCSC)C(=O)N[C@@H](CO)C(=O)N[C@@H](CCCCN)C(=O)N[C@@H](Cc1c[nH]c2ccccc12)C(=O)N[C@@H](CO)C(=O)N[C@@H](CCCCN)C(=O)N[C@@H](CCCNC(=N)N)C(=O)N[C@@H](CCCCN)C(=O)N[C@@H](CCCCN)C(N)=O) [SEQ ID NO: 12]
10 | 32.8 | 106 | Ac-LEGREKVRAQI[Aib][Aib]EG[Nle]SK[1Nal]SKRKK-NH2 (SMILES CCCC[C@H](NC(=O)CNC(=O)[C@H](CCC(=O)O)NC(=O)C(C)(C)NC(=O)C(C)(C)NC(=O)[C@@H](NC(=O)[C@H](CCC(N)=O)NC(=O)[C@H](C)NC(=O)[C@H](CCCNC(=N)N)NC(=O)[C@@H](NC(=O)[C@H](CCCCN)NC(=O)[C@H](CCC(=O)O)NC(=O)[C@H](CCCNC(=N)N)NC(=O)CNC(=O)[C@H](CCC(=O)O)NC(=O)[C@H](CC(C)C)NC(C)=O)C(C)C)[C@@H](C)CC)C(=O)N[C@@H](CO)C(=O)N[C@@H](CCCCN)C(=O)N[C@@H](Cc1cccc2ccccc12)C(=O)N[C@@H](CO)C(=O)N[C@@H](CCCCN)C(=O)N[C@@H](CCCNC(=N)N)C(=O)N[C@@H](CCCCN)C(=O)N[C@@H](CCCCN)C(N)=O) [SEQ ID NO: 14]
